# Reference: patent US7132258B1, “Nucleic acid encoding vitamin D receptor related polypeptide” (University of Massachusetts, priority 1998, dated 2006)
# Key:
# [1] = target: T1, human progesterone receptor (hPR) (Homo sapiens, UniProt P06401); assay: Coactivation of hPR on MMTV-LTR luciferase reporter in CV-1 cells; type: cell-based; conditions: coexpressed RAC3, 100 nM progesterone
# T1 construct: expressed in transfected cells; host or cells: CV-1 monkey kidney cells
# Procedure: In this experiment, transfected cells were treated with or without 100 nM of progesterone at presence or absence of coexpressed RAC3 or SRC-1 in CV-1 cells.
# Thus, RAC3 is a bona fide transcriptional coactivator for mammalian steroid/nuclear hormone receptors.
# RXR (full-length hRXRα) = target: T2, RXR (full-length hRXRα) (Homo sapiens, UniProt P19793); assay: Yeast two-hybrid interaction with RXR; type: binding; conditions: β-galactosidase ONPG assay, 1 μM ligand or vehicle
# T2 construct: RXR (full-length hRXRα); expressed in transfected cells; host or cells: Saccharomyces cerevisiae Y190
# T2 sequence (P19793 1-462): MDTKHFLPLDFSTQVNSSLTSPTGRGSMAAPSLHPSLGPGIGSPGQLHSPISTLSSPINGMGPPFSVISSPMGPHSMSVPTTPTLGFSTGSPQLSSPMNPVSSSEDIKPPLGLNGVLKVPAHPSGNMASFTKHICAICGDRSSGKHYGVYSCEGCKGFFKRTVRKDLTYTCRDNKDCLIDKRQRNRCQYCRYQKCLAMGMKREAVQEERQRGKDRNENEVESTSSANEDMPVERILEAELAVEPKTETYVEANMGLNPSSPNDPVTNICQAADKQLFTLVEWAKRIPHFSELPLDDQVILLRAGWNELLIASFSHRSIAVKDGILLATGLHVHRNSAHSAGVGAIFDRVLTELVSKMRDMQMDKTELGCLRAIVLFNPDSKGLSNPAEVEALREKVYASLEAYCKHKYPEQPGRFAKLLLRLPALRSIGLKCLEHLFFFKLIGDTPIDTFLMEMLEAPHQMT
# T2 sequence (Q9Y6Q9 401-1204 E704Q partner limits assumed): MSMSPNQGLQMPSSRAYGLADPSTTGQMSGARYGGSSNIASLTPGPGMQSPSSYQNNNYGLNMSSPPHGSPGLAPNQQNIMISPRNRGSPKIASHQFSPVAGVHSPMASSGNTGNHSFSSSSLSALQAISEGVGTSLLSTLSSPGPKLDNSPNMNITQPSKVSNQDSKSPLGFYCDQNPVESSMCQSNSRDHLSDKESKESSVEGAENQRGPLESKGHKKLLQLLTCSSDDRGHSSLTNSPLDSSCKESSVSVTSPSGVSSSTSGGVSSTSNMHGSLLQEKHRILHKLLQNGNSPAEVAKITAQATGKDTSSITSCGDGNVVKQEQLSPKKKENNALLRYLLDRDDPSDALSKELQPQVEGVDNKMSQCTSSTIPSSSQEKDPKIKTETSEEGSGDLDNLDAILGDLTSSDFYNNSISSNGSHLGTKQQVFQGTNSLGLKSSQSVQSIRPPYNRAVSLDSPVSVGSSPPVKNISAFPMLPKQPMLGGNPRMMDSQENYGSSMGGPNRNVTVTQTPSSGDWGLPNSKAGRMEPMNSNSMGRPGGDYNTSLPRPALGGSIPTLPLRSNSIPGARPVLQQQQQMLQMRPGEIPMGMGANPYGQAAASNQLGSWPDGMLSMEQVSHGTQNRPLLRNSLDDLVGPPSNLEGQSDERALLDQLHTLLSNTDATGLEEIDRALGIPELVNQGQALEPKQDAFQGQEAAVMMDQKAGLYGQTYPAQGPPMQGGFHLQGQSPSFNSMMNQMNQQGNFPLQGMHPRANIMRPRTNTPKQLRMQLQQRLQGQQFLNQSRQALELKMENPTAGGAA
# Procedure: (§1) The protein—protein interactions between RAC3 and several steroid/nuclear receptors were analyzed by the yeast two-hybrid system. The original two-hybrid clone, RAC3.1 in pGAD10 vector, was retransformed together with yeast expression vectors for Gal4 DBD fusion of selected hormone receptor genes into Y190 cells. The receptors used include RAR (full-length hRARα), RXR (full-length hRXRα), VDR (LBD of human Vitamin D receptor), PPAR (LBD of mPPARα), TR (LBD) of hTRβ), COUP (LBD of COUP-TFI). Three independent colonies from each transformation were selected and analyzed for expression of […] activities by liquid ONPG assay (FIG. 6) after treatment with 1 μM of corresponding ligands (closed bars), or with equal concentration of vehicle alone (open bars). […] The ligands used in these experiments were atRA, VitD3 (1,25-dihydroxyvitamin D3), and Wy (Wy 14,642). […] In the absence of ligand, RAC3 can interact with RAR and PPAR.
# COUP (LBD of COUP-TFI) = target: T3, COUP (LBD of COUP-TFI) (Homo sapiens, UniProt P10589); assay: Yeast two-hybrid interaction with COUP-TFI; type: binding; conditions: β-galactosidase ONPG assay
# T3 construct: COUP (LBD of COUP-TFI); expressed in transfected cells; host or cells: Saccharomyces cerevisiae Y190
# T3 sequence (P10589 184-410 limits assumed): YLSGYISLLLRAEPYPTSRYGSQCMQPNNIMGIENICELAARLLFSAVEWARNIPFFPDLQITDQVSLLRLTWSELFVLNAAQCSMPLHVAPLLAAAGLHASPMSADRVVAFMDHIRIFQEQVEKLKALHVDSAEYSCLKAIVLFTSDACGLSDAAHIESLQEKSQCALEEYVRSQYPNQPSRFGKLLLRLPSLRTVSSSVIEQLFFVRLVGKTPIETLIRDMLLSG
# Procedure: as §1
# T1 sequence (P06401 whole entry): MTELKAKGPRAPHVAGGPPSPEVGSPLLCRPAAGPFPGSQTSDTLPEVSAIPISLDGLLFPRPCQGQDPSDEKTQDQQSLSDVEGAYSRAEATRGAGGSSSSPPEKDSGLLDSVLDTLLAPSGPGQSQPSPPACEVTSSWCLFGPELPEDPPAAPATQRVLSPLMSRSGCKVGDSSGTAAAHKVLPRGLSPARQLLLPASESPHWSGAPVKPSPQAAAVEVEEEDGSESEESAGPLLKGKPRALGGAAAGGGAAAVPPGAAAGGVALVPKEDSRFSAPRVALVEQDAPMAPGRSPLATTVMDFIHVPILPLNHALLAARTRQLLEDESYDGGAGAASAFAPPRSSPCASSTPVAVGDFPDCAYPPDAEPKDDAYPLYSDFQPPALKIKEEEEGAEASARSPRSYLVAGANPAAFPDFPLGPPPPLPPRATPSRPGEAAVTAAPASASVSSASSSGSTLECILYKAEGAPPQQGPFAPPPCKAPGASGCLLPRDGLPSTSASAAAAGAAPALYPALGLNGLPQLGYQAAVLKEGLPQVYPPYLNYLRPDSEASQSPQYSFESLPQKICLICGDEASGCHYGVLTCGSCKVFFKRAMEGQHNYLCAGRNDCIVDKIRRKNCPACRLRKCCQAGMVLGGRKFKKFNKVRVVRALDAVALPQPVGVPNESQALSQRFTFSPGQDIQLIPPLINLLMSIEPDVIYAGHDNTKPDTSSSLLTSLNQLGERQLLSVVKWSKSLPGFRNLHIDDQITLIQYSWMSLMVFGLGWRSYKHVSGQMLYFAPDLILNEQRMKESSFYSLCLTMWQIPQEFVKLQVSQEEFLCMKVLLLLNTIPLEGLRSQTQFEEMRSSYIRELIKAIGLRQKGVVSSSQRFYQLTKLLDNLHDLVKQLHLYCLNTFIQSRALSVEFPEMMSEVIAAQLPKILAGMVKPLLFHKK
# T1 sequence (Q9Y6Q9 with tags, fused parts or gaps isoform Q9Y6Q9-5 D131E/G132A/T187P/E704Q/DEL1268-1272 partner): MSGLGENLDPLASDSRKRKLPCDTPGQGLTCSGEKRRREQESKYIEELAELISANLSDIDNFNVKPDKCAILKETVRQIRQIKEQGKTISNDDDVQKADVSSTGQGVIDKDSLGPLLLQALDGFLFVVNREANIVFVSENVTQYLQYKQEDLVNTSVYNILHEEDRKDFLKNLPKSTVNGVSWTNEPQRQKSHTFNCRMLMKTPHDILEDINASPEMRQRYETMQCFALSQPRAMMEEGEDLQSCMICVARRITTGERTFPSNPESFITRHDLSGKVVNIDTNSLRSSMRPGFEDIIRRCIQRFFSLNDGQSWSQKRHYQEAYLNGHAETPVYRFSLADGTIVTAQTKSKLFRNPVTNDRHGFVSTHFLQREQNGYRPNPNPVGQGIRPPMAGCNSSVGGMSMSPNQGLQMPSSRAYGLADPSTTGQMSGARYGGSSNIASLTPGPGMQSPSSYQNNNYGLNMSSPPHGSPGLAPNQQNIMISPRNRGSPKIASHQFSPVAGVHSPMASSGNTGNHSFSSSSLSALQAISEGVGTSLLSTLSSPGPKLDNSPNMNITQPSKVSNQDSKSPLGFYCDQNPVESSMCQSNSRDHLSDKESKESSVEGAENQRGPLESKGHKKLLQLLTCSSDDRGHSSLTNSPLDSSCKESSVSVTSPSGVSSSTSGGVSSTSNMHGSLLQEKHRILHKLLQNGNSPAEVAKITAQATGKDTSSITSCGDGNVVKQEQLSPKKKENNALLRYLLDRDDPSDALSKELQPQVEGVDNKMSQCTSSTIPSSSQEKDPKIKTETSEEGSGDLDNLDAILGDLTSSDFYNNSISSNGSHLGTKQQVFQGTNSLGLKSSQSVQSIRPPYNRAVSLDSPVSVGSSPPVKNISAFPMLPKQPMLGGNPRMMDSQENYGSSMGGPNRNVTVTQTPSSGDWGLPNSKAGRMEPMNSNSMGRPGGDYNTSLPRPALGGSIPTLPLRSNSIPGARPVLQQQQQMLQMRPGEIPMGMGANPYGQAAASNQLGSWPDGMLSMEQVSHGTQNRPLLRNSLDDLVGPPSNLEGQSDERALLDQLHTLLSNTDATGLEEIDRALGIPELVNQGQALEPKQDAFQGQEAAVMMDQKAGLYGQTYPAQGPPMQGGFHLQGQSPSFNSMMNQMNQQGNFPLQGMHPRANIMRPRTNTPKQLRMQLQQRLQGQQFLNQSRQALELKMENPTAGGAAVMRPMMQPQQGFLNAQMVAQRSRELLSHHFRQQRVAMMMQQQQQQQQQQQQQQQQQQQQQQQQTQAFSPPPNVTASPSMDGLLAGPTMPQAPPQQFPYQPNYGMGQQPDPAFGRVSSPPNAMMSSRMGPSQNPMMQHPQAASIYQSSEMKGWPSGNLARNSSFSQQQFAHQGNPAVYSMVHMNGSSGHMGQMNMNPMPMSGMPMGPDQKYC
substance,measurement,setting,value
"RAC3: transcriptional coactivator of steroid/nuclear receptors, protein of about 1417 amino acids (SEQ ID NO:2); RAC3.1 is the two-hybrid clone, amino acids 401–1204",transcriptional activation by PR on the MMTV-LTR promoter,[1],enhanced transcriptional activation
same,interaction with RXR,RXR (full-length hRXRα),ligand-dependent manner
same,interaction with COUP-TFI,COUP (LBD of COUP-TFI),did not interact
